The RNAGym collection of RNA variant scans (doi:10.1093/molbev/msab373)

B1: Azoarcus group I ribozyme (parent)
chain: GUGCCUUGCGCCGGGAAACCACGCAAGGGAUGGUGUCAAAUUCGGCGAAACCUAAGCGCCCGCCCGGGCGUAUGGCAACGCCGAGCCAAGCUUCGGCGCCUGCGCCGAUGAAGGUGUAGAGACUAGACGGCACCCACCUAAGGCAAACGCUAUGGUGAAGGCAUAGUCCAGGGAGUGGCGAAAGUCACACAAACCGG

Variants of: B1
Test: reverse-splicing fitness (ratio to wild type); higher = more active; in vitro selection; Mg2+ level not given
Procedure, shortened: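 An in vitro group I ribozyme library with randomized positions was T7-transcribed and gel-purified. In triplicate, 10 pmol RNA in EPPS pH 7.5 was reacted with 50 pmoles of a 30-nt RNA substrate for 1 h at 37 °C across several added MgCl2 levels (1–48 mM), then stopped with EDTA. Products were reverse transcribed from a substrate-complementary primer, PCR-amplified and sequenced (HiSeq 4000). Fitness is a variant's read proportion after selection over that before, normalised to wild type.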

Variant	reverse-splicing fitness
C82A A111G A145U C150G C169A	0.00833
C82A A111G A145U C150G C169U	0.00964
C82A A111G A145U C150G C169G	0.00749
C82A A111U A120C A145U C150U C169A U176C	0.0168
C82A A111U A120C A145U C150U C169A U176A	0.0216
C82A A111G A145G C169U U176A	0.0137
C82A A111G A145G C169U U176C	0.0149
C82A A111G A145G C169U U176G	0.00606
C82A A111U A120C A145G C150G C169A U176C	0.016
C82A A111U A120C A145G C150G C169A U176G	0.00887
C82A A111U A120C A145G C150G C169A U176A	0.0164
C82A A111U A120C A145G C150U C169U	0.0127
C82A A111U A120C A145G C150U C169A	0.0113
C82A A111U A120C A145G C150U C169G	0.00957
C82A A111U A120C A145C C150G C169G U176G	0.0065
C82A A111U A120C A145C C150G C169G U176C	0.00882
C82A A111U A120C A145C C150G C169G U176A	0.0109
C82A A111U A120C A145C C150A U176C	0.0167
C82A A111U A120C A145C C150A U176G	0.00578
C82A A111U A120C A145C C150A U176A	0.0115
C82A A111U A120C A145U C150A U176C	0.0223
C82A A111U A120C A145U C150A U176G	0.00762
C82A A111U A120C A145U C150A U176A	0.0108
C82A A111U A120C A145G C169A U176C	0.0332

Variant	reverse-splicing fitness
C82A A111U A120C A145G C169A U176A	0.0312
C82A A111U A120C A145G C169A U176G	0.00699
C82A A111G A145U C150G C169A U176C	0.0104
C82A A111G A145U C150G C169A U176G	0.00684
C82A A111G A145U C150G C169A U176A	0.0104
C82A A111U A120C A145G C150A C169U U176A	0.019
C82A A111U A120C A145G C150A C169U U176G	0.00879
C82A A111U A120C A145G C150A C169U U176C	0.0176
C82A A111G A145U C150G C169G U176G	0.00584
C82A A111G A145U C150G C169G U176C	0.00567
C82A A111G A145U C150G C169G U176A	0.00771
C82A A111U A120C A145C C150A C169U U176A	0.0157
C82A A111U A120C A145C C150A C169U U176G	0.00621
C82A A111U A120C A145C C150A C169U U176C	0.0124
C82A A111G C169U U176C	0.0142
C82A A111G C169U U176A	0.0153
C82A A111G C169U U176G	0.00547
C82A A111U A120C A145U C150G C169U U176G	0.00741
C82A A111U A120C A145U C150G C169U U176C	0.0117
C82A A111U A120C A145U C150G C169U U176A	0.00711
C82A A111G A145U C150U C169U U176A	0.014
C82A A111G A145U C150U C169U U176C	0.0116
C82A A111G A145U C150U C169U U176G	0.00658
C82A A111G A145U C150A C169A	0.0101

Variant	reverse-splicing fitness
C82A A111G A145U C150A C169G	0.00826
C82A A111G A145U C150A C169U	0.0106
C82A A111U A120C A145G C150A C169A U176C	0.0279
C82A A111U A120C A145G C150A C169A U176G	0.0115
C82A A111U A120C A145G C150A C169A U176A	0.0221
C82A A111G A145G C150U	0.32
C82A A111G C169A	0.00855
C82A A111G C169U	0.0132
C82A A111G C169G	0.00926
C82A A111U A120C A145G C150A C169U	0.0104
C82A A111U A120C A145G C150A C169A	0.0122
C82A A111U A120C A145G C150A C169G	0.00972
C82A A111G C150A C169A U176A	0.0203
C82A A111G C150A C169A U176C	0.0218
C82A A111G C150A C169A U176G	0.0074
C82A A111U A120C A145U C150U	0.0216
C82A A111U A120C A145U C150A	0.0107
C82A A111U A120C A145U C150G	0.00883
C82A A111G A145U C150U C169A U176G	0.00665
C82A A111G A145U C150U C169A U176A	0.0133
C82A A111G A145U C150U C169A U176C	0.0114
C82A A111U A120C A145U C150U C169A	0.0111
C82A A111G A145G C150U C169G	0.0102
C82A A111G A145G C150U C169U	0.0135

Variant	reverse-splicing fitness
C82A A111G A145G C150U C169A	0.0115
C82A A111U A120C A145U C150G C169G U176G	0.00698
C82A A111U A120C A145U C150G C169G U176A	0.00986
C82A A111U A120C A145U C150G C169G U176C	0.00626
C82A A111U A120C A145C C150G C169U U176C	0.0102
C82A A111U A120C A145C C150G C169U U176G	0.00543
C82A A111U A120C A145C C150G C169U U176A	0.00683
C82A A111U A120C A145G C150G U176A	0.00848
C82A A111U A120C A145G C150G U176G	0.00733
C82A A111U A120C A145G C150G U176C	0.0126
C82A A111U A120C A145C C150U C169A U176C	0.0162
C82A A111U A120C A145C C150U C169A U176A	0.0182
C82A A111U A120C A145C C150U C169A U176G	0.00873
C82A A111G A145U C169A	0.00788
C82A A111G A145U C169U	0.0125
C82A A111G A145U C169G	0.00852
C82A A111G A145U C150G C169U U176C	0.0117
C82A A111G A145U C150G C169U U176G	0.00668
C82A A111G A145U C150G C169U U176A	0.00709
C82A A111G C150G C169G U176A	0.00836
C82A A111G C150G C169G U176G	0.00592
C82A A111G C150G C169G U176C	0.00543
C82A A111U A120C A145C C169G U176A	0.0334
C82A A111U A120C A145C C169G U176C	0.0325

Variant	reverse-splicing fitness
C82A A111U A120C A145C C169G U176G	0.00816
C82A A111G A145G C150U C169A U176A	0.0167
C82A A111G A145G C150U C169A U176G	0.00696
C82A A111G A145G C150U C169A U176C	0.0181
C82A A111G A145U C169U U176G	0.0055
C82A A111G A145U C169U U176A	0.0124
C82A A111G A145U C169U U176C	0.0133
C82A A111G C150A C169U U176A	0.0172
C82A A111G C150A C169U U176G	0.00815
C82A A111G C150A C169U U176C	0.014
C82A A111G C150A U176A	0.0284
C82A A111G C150A U176C	0.0387
C82A A111G C150A U176G	0.0144
C82A A111U A120C A145C C169A U176C	0.0175
C82A A111U A120C A145C C169A U176G	0.00573
C82A A111U A120C A145C C169A U176A	0.0167
C82A A111G A145G C150U U176G	0.0317
C82A A111G A145G C150U U176C	0.174
C82A A111G A145G C150U U176A	0.115
C82A A111U A120C A145C C150A C169G U176G	0.0101
C82A A111U A120C A145C C150A C169G U176C	0.0348
C82A A111U A120C A145C C150A C169G U176A	0.0385
C82A A111G A145U C150G U176C	0.0181
C82A A111G A145U C150G U176G	0.0047

Variant	reverse-splicing fitness
C82A A111G A145U C150G U176A	0.00973
C82A A111U A120C A145G C169U U176C	0.0156
C82A A111U A120C A145G C169U U176A	0.0178
C82A A111U A120C A145G C169U U176G	0.00584
C82A A111G C150U U176A	0.0842
C82A A111G C150U U176G	0.0264
C82A A111G C150U U176C	0.127
C82A A111G A145U	0.431
C82A A111U A120C A145U C150A C169A	0.0109
C82A A111U A120C A145U C150A C169G	0.00953
C82A A111U A120C A145U C150A C169U	0.0109
C82A A111U A120C A145C C169U U176C	0.0149
C82A A111U A120C A145C C169U U176G	0.00416
C82A A111U A120C A145C C169U U176A	0.0168
C82A A111G A145G U176A	0.184
C82A A111G A145G U176G	0.0444
C82A A111G A145G U176C	0.245
C82A A111G C150G	0.024
C82A A111G C150A	0.0352
C82A A111G C150U	0.205
C82A A111G A145U C150A C169G U176C	0.016
C82A A111G A145U C150A C169G U176G	0.00624
C82A A111G A145U C150A C169G U176A	0.0174
C82A A111G A145U U176C	0.249

Variant	reverse-splicing fitness
C82A A111G A145U U176A	0.179
C82A A111G A145U U176G	0.0692
C82A A111U A120C A145G C150A U176C	0.0241
C82A A111U A120C A145G C150A U176A	0.0105
C82A A111U A120C A145G C150A U176G	0.00997
C82A A111G C169A U176C	0.019
C82A A111G C169A U176A	0.0155
C82A A111G C169A U176G	0.00616
C82A A111G C150G U176G	0.004
C82A A111G C150G U176C	0.0152
C82A A111G C150G U176A	0.00793
C82A A111G C150A C169G	0.00926
C82A A111G C150A C169A	0.0109
C82A A111G C150A C169U	0.0114
C82A A111U A120C A145U C150G U176G	0.00439
C82A A111U A120C A145U C150G U176A	0.00752
C82A A111U A120C A145U C150G U176C	0.00808
C82A A111G A145G C150G C169G U176G	0.00597
C82A A111G A145G C150G C169G U176C	0.011
C82A A111U A120C A145G C150A C169G U176G	0.00858
C82A A111U A120C A145G C150A C169G U176C	0.0343
C82A A111U A120C A145G C150A C169G U176A	0.0204
C82A A111G A145G C169G U176G	0.00515
